Assay results taken from PMC6174002.

T1: RpoN (sigma54) (Leptospira biflexa strain Patoc 1 …, UniProt B0SR56 1-473)
T1 sequence: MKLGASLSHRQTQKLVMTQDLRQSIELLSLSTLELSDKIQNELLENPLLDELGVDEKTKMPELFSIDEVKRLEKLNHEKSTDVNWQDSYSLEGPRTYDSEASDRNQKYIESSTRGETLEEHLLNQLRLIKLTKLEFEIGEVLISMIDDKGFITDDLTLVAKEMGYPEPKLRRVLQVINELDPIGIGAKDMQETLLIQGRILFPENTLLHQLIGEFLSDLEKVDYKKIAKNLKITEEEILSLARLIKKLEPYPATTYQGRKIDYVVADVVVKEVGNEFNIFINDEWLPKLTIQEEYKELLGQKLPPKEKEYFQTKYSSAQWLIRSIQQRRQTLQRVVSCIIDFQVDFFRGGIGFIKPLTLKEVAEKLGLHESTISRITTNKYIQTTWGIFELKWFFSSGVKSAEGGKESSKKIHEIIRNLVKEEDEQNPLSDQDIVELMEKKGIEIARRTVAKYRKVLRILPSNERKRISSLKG

B1: rcfA promoter -24/-12 probe (dsDNA)
DNA 1: TAAGCCCAATATGCTTTTGGCACGATAGTTGCATCTATTCTACTG
DNA 2: TTCAGTAGAATAGATGCAACTATCGTGCCAAAAGCATATTGGGCTT
B2: rcfA promoter cold competitor (dsDNA)
DNA 1: B1 DNA 1
DNA 2: B1 DNA 2

How the values were obtained:
[1] = target: T1, RpoN (sigma54); assay: EMSA
[2] = target: T1, RpoN (sigma54); assay: competition

Row | Binder | binding result [1] | binding result [2]
1 | B1 | binds | –
2 | B2 | – | binds
